Residue numbers refer to the chain shown, from its start.
Columns and labels:
Assay in all cases: SPR, mAb 1B7 immobilised ~1000 RU
PTx-S1-220 E210A = target: T1, PTx-S1-220 E210A (Bordetella pertussis strain Tohama I, UniProt P04977 36-255, E210A)
T1 sequence: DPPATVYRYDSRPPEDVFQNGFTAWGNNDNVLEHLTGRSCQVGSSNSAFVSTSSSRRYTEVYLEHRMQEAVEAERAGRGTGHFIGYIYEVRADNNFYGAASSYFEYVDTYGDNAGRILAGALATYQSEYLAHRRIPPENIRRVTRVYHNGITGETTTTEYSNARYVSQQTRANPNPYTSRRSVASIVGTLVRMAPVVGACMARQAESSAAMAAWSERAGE

PTx-S1-220 E16A = target: T2, PTx-S1-220 E16A (Bordetella pertussis strain Tohama I, UniProt P04977 36-255, E16A)
T2 sequence: T1 sequence with E15A, A209E

PTx-S1-220 H83A = target: T3, PTx-S1-220 H83A (Bordetella pertussis strain Tohama I, UniProt P04977 36-255, H83A)
T3 sequence: T1 sequence with H82A, A209E

PTx-S1-220 N150A = target: T4, PTx-S1-220 N150A (Bordetella pertussis strain Tohama I, UniProt P04977 36-255, N150A)
T4 sequence: T1 sequence with N149A, A209E

PTx-S1-220 T156A = target: T5, PTx-S1-220 T156A (Bordetella pertussis strain Tohama I, UniProt P04977 36-255, T156A)
T5 sequence: T1 sequence with T155A, A209E

PTx-S1-220 T158A = target: T6, PTx-S1-220 T158A (Bordetella pertussis strain Tohama I, UniProt P04977 36-255, T158A)
T6 sequence: T1 sequence with T157A, A209E

PTx-S1-220 T81A = target: T7, PTx-S1-220 T81A (Bordetella pertussis strain Tohama I, UniProt P04977 36-255, T81A)
T7 sequence: T1 sequence with T80A, A209E

PTx-S1-220 T159A = target: T8, PTx-S1-220 T159A (Bordetella pertussis strain Tohama I, UniProt P04977 36-255, T159A)
T8 sequence: T1 sequence with T158A, A209E

PTx-S1-220 R146A = target: T9, PTx-S1-220 R146A (Bordetella pertussis strain Tohama I, UniProt P04977 36-255, R146A)
T9 sequence: T1 sequence with R145A, A209E

B1: monoclonal antibody 1B7 (antibody)
chain: DIQMTQSPALMSASPGEKVTMTCSASSSVSFMYWYQQKPRSSPKPWIYLTSNLPSGVPARFSGSGSGTSYSLTISSMEAEDAATYYCQQWSSHPPTFGSGTKLEIKRGGGGSGGGGSGGGGSGGGGSEVQLQQSGSELVRPGASVKLSCKASGYKFTSYWMHWVKQRPGQGLEWIGNIFPGSGSTNYDEKFNSKATLTVDTSSNTAYMQLSSLTSEDSAVYYCTRWLSGAYFDYWGQGTTLTVSSASGA
notes: also called mAb 1B7; 1B7 mAb
With B1 the koff (PTx-S1-220 E210A) was 0.0016 s⁻¹, the koff (PTx-S1-220 E16A) was 0.0016 s⁻¹ and the koff (PTx-S1-220 H83A) was 0.01 s⁻¹. For the same binder, the koff (PTx-S1-220 N150A) was 0.008 s⁻¹, the koff (PTx-S1-220 T156A) was 0.0011 s⁻¹ and the koff (PTx-S1-220 T158A) was 0.0013 s⁻¹. The koff (PTx-S1-220 T81A) was 0.0017 s⁻¹, the koff (PTx-S1-220 T159A) was 0.0014 s⁻¹ and the koff (PTx-S1-220 R146A) was 0.0015 s⁻¹.
